Where two headings read alike, the source gives them in different places.
Legend:
[1] = biological target: T1, recombinant HIV-1 reverse transcriptase protein (HIV-1, UniProt P03367 600-858)
T1 construct: also called rHIV-1; HIV-1 RT

[2] = biological target: T1, recombinant HIV-1 reverse transcriptase …; test: ELISA, plate coated with HIV-1 RT, sdAb at 1 µg/mL, checkerboard of coating, 2° antibody and HRP
[3] = biological target: T1, recombinant HIV-1 reverse transcriptase …; test: SPR (Biacore 3000), sdAb immobilized (1200 RU), full kinetics, analyte 0-200 nM
[4] = biological target: T1, recombinant HIV-1 reverse transcriptase …; test: SPR (Biacore 3000), sdAb immobilized, analyte 100 nM
[5] = biological target: T1, recombinant HIV-1 reverse transcriptase …; remark: listed apart in the source
[6] = biological target: T1, recombinant HIV-1 reverse transcriptase …; remark: listed apart in the source
[7] = biological target: T1, recombinant HIV-1 reverse transcriptase …; remark: listed apart in the source
[8] = biological target: T1, recombinant HIV-1 reverse transcriptase …; remark: listed apart in the source
[9] = biological target: T1, recombinant HIV-1 reverse transcriptase …; remark: listed apart in the source

B1: HIV1-9 anti-HIV-1 RT sdAb (VHH)
VHH: EVQLVESGGGSVQAGGSLRLSCAASVYSYNTNCMGWFRQAPGKEREGVAVIYAAGGLTYYADSVKGRFTISQENGKNTVYLTMNRLKPEDTAMYYCAAKRWCSSWNRGEEYNYWGQGTQVTVSS
notes: also called HIV1-9 VHH; HIV1-9 anti-RT sdAb
For B1, which EC50 [1] is on record?
Its EC50 is 0.0227 µg/mL.

And the signal-to-noise ratio [2]?
Its signal-to-noise ratio is > 20.

And the Kd [3]?
The Kd was 3.85 nM.

What about the koff [3] of the same binder?
Its koff is 0.000731 s⁻¹.

And the kon [3]?
The kon was 190000 M⁻¹ s⁻¹.

What about the Kd [4] of the same binder?
The Kd was 4.25 nM.

And the koff [4]?
Its koff is 0.000379 s⁻¹.

What about the kon [4] of the same binder?
The kon was 89100 M⁻¹ s⁻¹.

And the EC50 [5]?
Its EC50 is 0.0133 µg/mL.

And the EC50 [6]?
The EC50 was 0.019 µg/mL.

What about the EC50 [7] of the same binder?
Its EC50 is 0.0161 µg/mL.

What about the EC50 [8] of the same binder?
The EC50 was 0.015 µg/mL.

And the EC50 [9]?
Its EC50 is 0.0191 µg/mL.

Source: patent publication US20170121395A1 (SINGH BIOTECHNOLOGY, published 2017)
